Measured values as given in US20030143696A1.

Target: Soluble human VCAM-1 IgG fusion protein (immobilized on coverslips) (human) (UniProt P19320)
Assay: cell-based or functional assay

Sequence of UniProt P19320 (P19320 25-698 limits assumed): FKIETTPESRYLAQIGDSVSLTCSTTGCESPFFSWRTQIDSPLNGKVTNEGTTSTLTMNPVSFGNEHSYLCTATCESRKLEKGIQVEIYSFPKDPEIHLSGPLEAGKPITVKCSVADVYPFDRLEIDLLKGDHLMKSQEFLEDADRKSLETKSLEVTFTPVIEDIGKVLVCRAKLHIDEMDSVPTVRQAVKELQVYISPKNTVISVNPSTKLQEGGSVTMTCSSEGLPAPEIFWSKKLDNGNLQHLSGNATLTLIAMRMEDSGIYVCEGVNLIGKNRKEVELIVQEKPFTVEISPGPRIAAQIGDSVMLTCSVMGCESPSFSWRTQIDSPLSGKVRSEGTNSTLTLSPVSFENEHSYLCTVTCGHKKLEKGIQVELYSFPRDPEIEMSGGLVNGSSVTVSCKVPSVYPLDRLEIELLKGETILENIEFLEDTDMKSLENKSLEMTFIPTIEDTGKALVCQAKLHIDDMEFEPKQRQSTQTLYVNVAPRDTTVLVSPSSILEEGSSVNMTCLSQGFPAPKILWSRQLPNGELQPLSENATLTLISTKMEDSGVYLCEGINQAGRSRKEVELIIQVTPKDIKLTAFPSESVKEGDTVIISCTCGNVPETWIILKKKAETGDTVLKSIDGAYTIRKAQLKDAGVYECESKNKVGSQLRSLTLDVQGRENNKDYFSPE

Q: With “VLA-4 integrin (on CD4+ naive and memory T cells) (from UniProt P13612 34-1032; P05556 21-798) (receptor)” as the substance, how does the memory CD4+ T cell accumulation on immobilized VCAM-1 under flow; inhibition by pretreatment with CKβ-13 read?
A: 42 to 72%
